Test results: patent US20240148890A1 (SUTRO BIOPHARMA, published 2024)

Target: folate receptor alpha (FOLR1) (human, UniProt P15328 25-234)
Experiment: cell-based or functional assay

Chain of folate receptor alpha (FOLR1) (P15328 25-234 limits assumed): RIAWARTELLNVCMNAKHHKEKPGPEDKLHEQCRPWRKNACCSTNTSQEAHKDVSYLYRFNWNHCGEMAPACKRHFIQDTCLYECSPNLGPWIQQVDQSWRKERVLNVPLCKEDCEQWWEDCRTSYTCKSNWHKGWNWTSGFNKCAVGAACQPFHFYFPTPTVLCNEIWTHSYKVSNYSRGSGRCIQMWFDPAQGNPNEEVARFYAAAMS

B1: Conjugate P (FOLR1-directed site-specific antibody-drug conjugate; IgG antibody with VH region SEQ ID NO: 362 and VL region SEQ ID NO: 367, conjugate formula … (antibody, V domains shown)
VH: EVQLVESGGGLVQPGGSLRLSCAASGFNIRTQSIHWVRQAPGKGLEWIGDIFPIDGITDYADSVKGRFTISADTSKNTAYLQMNSLRAEDTAVYYCARGSWSWPSGMDYYLDYWGQGTLVTVSS
VL: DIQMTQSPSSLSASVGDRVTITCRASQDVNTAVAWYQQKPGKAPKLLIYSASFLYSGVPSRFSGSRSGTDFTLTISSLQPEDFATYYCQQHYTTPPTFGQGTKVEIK
modifications: para-azidomethylphenylalanine residues substituting for Y180 and F404 (printed as 'of each VH region'; elsewhere given as heavy chain positions), each linked to the hemiasterlin linker-payload of conjugate formula P (n=4)
Question: For B1, which “in vitro cytotoxicity IC50 against CBF/GLIS-transduced CB HPSCs (which upregulate FOLR1)” value is on record?
Answer: 4.2 nM

Question: What about the “in vitro cytotoxicity IC50 against MV4;11 AML cell line engineered to express FOLR1 (MV4;11 FOLR1+)” value of the same binder?
Answer: 0.1 nM
